Molecular target: T1, GST-AC8 1–77 (rat, UniProt P40146 1-77)
T1 sequence (looked up): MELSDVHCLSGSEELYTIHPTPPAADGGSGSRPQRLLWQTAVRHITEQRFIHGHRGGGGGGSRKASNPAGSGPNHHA
Assay: pull-down

fold interaction against GST-AC8 73–179 (densitometry, HA band relative to GST): 1.6 fold
B1: AKAP150-HA (natural protein, rat, UniProt P24587 1-714, looked up)
chain: METSVSEIQIETKDEKRPEAASPQKERQERKTATLCFKRRKKVNKKKAKAGSKTAEETEKHAPEAGGSGQRQPAGAWASIKRLVTHRKPSESAEKQKPSEAEMQPEDGALPKKKTKSKLKIPCIRFSRGAKRSRPSKLTEDSGYVRVQGEADDLEIKAQIQPDEQATQAKSTQGLQEDVIVRDGKEIQESHISNNVISGEHVIGIELELEKESSALRMRTPGSEKEAKVILVKQGVQVQEASVLENSAADSPQPVTSTAPLSPATTHQLGLEEPSDSIRESAPSGKDDGRRKTAAEEKKSGETALGQAEEASSVSQADKSVLSQAEEATVGHTEEATVIQAQSQAKEGKLSQAEEATVAQAKETVLSQAEEVKLSQIEEPAISQAKKATVGQAKEAYVSQAEEAIVGHTEKATMGQAEEATVGHIEKTTVGQAEEATVGQAEEATVGQAEEATVGQAEEATVGQAEEATVGQAGEATVSHIEKTTVGQAEEAIVGQAEEATVGQAEEATVGQAEEATVGQAEEATVDQAEEATVGQAEEATVGQAGEAAVGQAEEAIVAQAEEATVGQAGEATVGQAEKATVGQAEEPIVGQAEETVLRHASDLKVNGVDAEKPRSEESKRMEPIAIIITDTEISEFDVKKSKNVPKQFLISMENEQVGVFANDSDFEGRTSEQYETLLIETASSLVKNAIELSVEQLVNEMVSEDNQINTLFQ

Source: PMC2888445 (The Journal of Biological Chemistry, 2010)
